# Measurements: patent US20060193821, “Aptamers to the human IL-12 cytokine family and their use as autoimmune disease therapeutics” (published 2006)
# T1: IL-23 (mouse, p19/p40 heterodimer) (Mus musculus, UniProt Q9EQ14;P43432 SEQ:22-196,SEQ:23-335)
# T1 sequence 1: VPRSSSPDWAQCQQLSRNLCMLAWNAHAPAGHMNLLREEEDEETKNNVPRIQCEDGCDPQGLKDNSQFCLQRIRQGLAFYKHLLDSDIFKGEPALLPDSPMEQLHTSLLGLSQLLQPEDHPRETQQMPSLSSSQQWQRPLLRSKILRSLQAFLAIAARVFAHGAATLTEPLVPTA
# T1 sequence 2: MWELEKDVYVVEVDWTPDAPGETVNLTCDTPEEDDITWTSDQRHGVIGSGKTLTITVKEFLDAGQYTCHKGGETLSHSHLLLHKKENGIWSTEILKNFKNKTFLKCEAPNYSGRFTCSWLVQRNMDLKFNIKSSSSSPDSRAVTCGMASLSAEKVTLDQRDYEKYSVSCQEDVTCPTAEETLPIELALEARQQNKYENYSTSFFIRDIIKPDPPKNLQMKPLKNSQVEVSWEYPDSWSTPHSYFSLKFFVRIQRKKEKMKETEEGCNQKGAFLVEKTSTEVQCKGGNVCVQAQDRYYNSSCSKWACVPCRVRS
# Legend:
# [1] = target: T2, IL-23 (human, p19/p40 heterodimer) (Homo sapiens, UniProt Q9NPF7;P29460 SEQ:20-189,SEQ:23-328); assay: filter; no binding; used as negative control; conditions: tags: R&D Systems, carrier free; label: 5'-32P
# Description: (§1) The fraction aptamer bound vs. [IL-23] was used to calculate the KD by fitting the following equation to the data: Fraction aptamer bound=amplitude*([IL-23]/(KD+[IL-23]))+background binding.
# Table 25 below summarizes the minimized sequences and the parent clone from which they were derived, and Table 26 summarizes the binding characterization from direct binding assays (+/−tRNA) and competition binding assays for the minimized constructs tested.
# [2] = target: T2, IL-23 (human, p19/p40 heterodimer); assay: cell_activity; TransAM STAT3; conditions: tags: R&D Systems, carrier free
# Procedure: In summary, the cell-based assay was conducted by isolating the peripheral blood mononuclear cells (PBMCs) from whole blood using a Histopaque gradient (Sigma, St. Louis, Mo.). The PBMCs were cultured for 3 to 5 days at 37° C./5% CO₂ in Peripheral Blood Medium (Sigma) which contains PHA, supplemented with IL-2 (100 units/mL) (R&D Systems, Minneapolis, Minn.), to generate PHA Blasts. To test IL-23 aptamers, the PHA Blasts were washed twice with 1×PBS, then serum starved for four hours in RPMI, 0.20% FBS. After serum starvation, approximately 2 million cells were aliquotted into appropriately labeled eppendorf tubes. hIL-23 at a final constant concentration of 3 ng/mL (R&D Systems, Minneapolis, Minn.) was combined with a dilution series of various IL-23 aptamers as described in Example 1, and the cytokine/aptamer mixture was added to the aliquotted cells in a final volume of 100 μl and incubated at 37° C. for 10-12 minutes. The incubation reaction was stopped by adding 1 mL of ice-cold PBS with 1.5 mM Na₃VO₄. Cell lysates were made using the lysis buffer provided by the TransAM™ STAT 3 assay following the manufacturer's instructions. FIG. 20 depicts a flow summary of the protocol used for the cell based assay.
# Full length clones from the rRfY selection described in Example 1A, and select minimized rRfY clones that were described in Example 2A. 1, were tested using the TransAM™ STAT3 activation assay. Table 34 summarizes the cell based assay data for IL-23 full length aptamers generated from the rRfY selections described in Example 1A. 1, each compared to the activity of their respective parent (full length) clone.
# [3] = target: T2, IL-23 (human, p19/p40 heterodimer); assay: filter; 0.1 mg/mL tRNA; conditions: tags: R&D Systems, carrier free
# Procedure: Monitoring Progress of rRfY Selection. Dot blot binding assays were performed throughout the selections to monitor the protein binding affinity of the pools. Trace ³²P-labeled RNA was combined with a dilution series of h-IL-23 and incubated at room temperature for 30 minutes in 1×SHMCK (20 mM Hepes, 120 mM NaCl, 5 mM KCl, 1 mM MgCl₂, 1 mM CaCl₂, pH 7.4) plus 0.1 mg/mL tRNA for a final volume of 20 μL. The binding reactions were analyzed by nitrocellulose filtration using a Minifold I dot-blot, 96-well vacuum filtration manifold (Schleicher & Schuell, Keene, N.H.). A three-layer filtration medium was used, consisting (from top to bottom) of Protran nitrocellulose (Schleicher & Schuell), Hybond-P nylon (Amersham Biosciences) and GB002 gel blot paper (Schleicher & Schuell). RNA that is bound to protein is captured on the nitrocellulose filter, whereas the non-protein bound RNA is captured on the nylon filter. The gel blot paper was included simply as a supporting medium for the other filters. Following filtration, the filter layers were separated, dried and exposed on a phosphor screen (Amersham Biosciences, Piscataway, N.J.) and quantified using a Storm 860 Phosphorimager® blot imaging system (Amersham Biosciences).
# [4] = target: T2, IL-23 (human, p19/p40 heterodimer); assay: filter; no binding detectable; conditions: tags: R&D Systems, carrier free; label: 5'-32P
# Description: (§2) Following the dRmY selection process for aptamers binding to IL-23 (described in Example 1C above) and determination of the oligonucleotide sequences, the sequences were systematically minimized to obtain shorter oligonucleotide sequences that retain the binding characteristics. On the basis of the IL-23 binding analysis described in Example 1A above and the cell based assay data described in Example 3 below, ARC489 (SEQ ID NO 91) (74mer) was chosen for further characterization. 3 minimized constructs based on clone ARC489 (SEQ ID NO 91) were designed and generated. […] Table 23 includes the binding data for the dRmY minimized aptamers.
# [5] = target: T2, IL-23 (human, p19/p40 heterodimer); assay: competition; 1X PBS, 0.1 mg/mL BSA; direct binding Kd 40 nM with tRNA; conditions: tags: R&D Systems, carrier free; label: 5'-32P; G4 (predicted)
# Procedure: as §1
# (§3) Several of the minimized constructs from the dRmY Selection 2 were also assayed in a competition format in which cold aptamer was titrated and competed away trace ³²P ATP labeled aptamer In the competition assay, the [IL-23] was held constant, the [trace labeled aptamer] was held constant, and the [unlabeled aptamer] was varied. The KD was calculated by fitting the following equation to the data: Fraction aptamer bound=amplitude*([aptamer]/(KD+[aptamer]))+background binding.
# [6] = target: T1, IL-23 (mouse, p19/p40 heterodimer); assay: filter; 1X PBS, 0.1 mg/mL BSA, 30 min RT; conditions: tags: isolated in-house; label: 32P
# Description: Based on visual inspection of the parent clone sequences of the mouse IL-23 rRfY aptamers described in Example 1E, and predicted RNA structures using an RNA folding program (RNAstructure), minimized constructs were designed for each of the seven binding mIL-23 clones. PCR templates for the minimized construct oligos were ordered from Integrated DNA Technologies (Coraville, Iowa). Constructs were PCR amplified, transcribed, gel purified, and tested for binding to mIL-23 using the dot blot binding assay previously described. Trace ³²P-labeled RNA was combined with mIL-23 and incubated at room temperature for 30 min in 1×PBS plus 0.1 mg/mL BSA for a final volume of 30 μL. The reaction was added to a dot blot apparatus (Schleicher and Schuell Minifold-1 Dot Blot, Acrylic). Binding curves were generated as described in previous sections. Table 33 summarizes the protein binding characterization for each rRfY minimized construct that had significant binding to mIL-23.
# [7] = target: T2, IL-23 (human, p19/p40 heterodimer); assay: filter; direct binding without tRNA; conditions: tags: R&D Systems, carrier free; label: 5'-32P
# Procedure: (§4) These molecules were gel purified and assayed for IL-23 binding using the dot blot assay as described above and compared to each other and to the parent molecule, ARC979. An 8 point IL-23 titration (0 nM to 300 nM, 3 fold serial dilutions) was used in the binding assay.
# [8] = target: T2, IL-23 (human, p19/p40 heterodimer); assay: competition; 1X PBS, 0.1 mg/mL BSA; direct Kd 93 nM with tRNA, 90 nM without; conditions: tags: R&D Systems, carrier free; label: 5'-32P; G4
# Procedure: as §1, §3
# [9] = target: T2, IL-23 (human, p19/p40 heterodimer); assay: filter; -tRNA; competition 6 nM; conditions: tags: R&D Systems, carrier free
# Procedure: as §4
# [10] = target: T2, IL-23 (human, p19/p40 heterodimer); assay: filter; direct binding without tRNA; competition Kd 5 nM; conditions: tags: R&D Systems, carrier free; label: 5'-32P
# Procedure: as §4
# [11] = target: T2, IL-23 (human, p19/p40 heterodimer); assay: filter; no binding detectable; conditions: tags: R&D Systems, carrier free; label: 32P
# [12] = target: IL-12 (human, p35/p40 heterodimer) (Homo sapiens, UniProt P29459;P29460 SEQ:57-253,SEQ:23-328); assay: filter; no binding detectable; conditions: label: 32P
# [13] = target: T2, IL-23 (human, p19/p40 heterodimer); assay: filter; 1X PBS, tRNA, ssDNA, BSA, 30 min RT; conditions: tags: R&D Systems, carrier free; label: 5'-32P
# Description: as §2
# [14] = target: T2, IL-23 (human, p19/p40 heterodimer); assay: filter; no binding in dot blot, but active in TransAM cell assay (p381); conditions: tags: R&D Systems, carrier free; label: 5'-32P
# T2 sequence (Q9NPF7 20-189, chain 1 of 2): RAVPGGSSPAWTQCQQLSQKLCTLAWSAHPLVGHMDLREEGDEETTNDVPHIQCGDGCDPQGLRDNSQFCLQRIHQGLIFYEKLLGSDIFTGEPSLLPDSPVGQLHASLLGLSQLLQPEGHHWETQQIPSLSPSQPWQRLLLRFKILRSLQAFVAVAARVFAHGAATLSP
# T2 sequence (P29460 23-328, chain 2 of 2): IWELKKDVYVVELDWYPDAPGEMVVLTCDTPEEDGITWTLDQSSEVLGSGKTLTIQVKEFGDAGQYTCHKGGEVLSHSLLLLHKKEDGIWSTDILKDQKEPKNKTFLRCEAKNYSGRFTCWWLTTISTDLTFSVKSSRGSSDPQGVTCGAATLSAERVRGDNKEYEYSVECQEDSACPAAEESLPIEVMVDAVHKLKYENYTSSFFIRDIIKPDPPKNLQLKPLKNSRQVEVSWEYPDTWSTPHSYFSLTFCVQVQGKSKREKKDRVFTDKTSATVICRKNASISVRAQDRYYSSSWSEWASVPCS
# IL-12 (human, p35/p40 heterodimer), sequence (P29459 23-219, chain 1 of 2): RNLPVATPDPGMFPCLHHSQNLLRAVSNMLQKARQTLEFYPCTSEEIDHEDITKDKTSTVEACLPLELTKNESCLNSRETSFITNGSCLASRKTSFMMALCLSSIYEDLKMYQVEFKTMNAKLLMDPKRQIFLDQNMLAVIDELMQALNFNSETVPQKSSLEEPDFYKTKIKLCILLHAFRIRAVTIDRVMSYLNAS
# IL-12 (human, p35/p40 heterodimer), sequence (P29460 23-328, chain 2 of 2): as the sequence (P29460 23-328, chain 2 of 2) above
binder,measurement,setting,value
"GGCAAGGUAAUUGGGUAGUGAGGGCUGGG (mixed, 2'-deoxy A and G, 2'-OMe C and U (dRmY)) [ARC895]",binding result,[1],no binding
"A10.min6 (ssRNA, 2'-F C,U) RNA: GGAGUACGCCGAAAGGCGCUCUGAGUACUCAGCGUCCGUAAGGGAUACUCC",IC50,[2],250 nM
same,Kd,[3],48.3 nM
"GCGCCGGUGGGCGGGCACCGGGUGGAUGCGCC (mixed, 2'-deoxy A and G, 2'-OMe C and U (dRmY)) [ARC528]",binding result,[4],no binding
"CGAUAUAGGCGGUACGGGGGGAGUGGGCUGGGGUCG (mixed, 2'-deoxy A and G, 2'-OMe C and U (dRmY)) [ARC795]",Kd,[5],4 nM
"GGGCACUCAGCCACAGGUGGCUUAAUACUGUAAAGACGUGCCC (ssRNA, 2'-F all C and U (rRfY)) [ARC1739 (ARC1628 minimer)]",Kd,[6],1 nM
"ACAGCGCCGGUGUUUUCAUUGGGUGGAUGCGCUGU (mixed, 2'-deoxy A and G, 2'-OMe C and U (dRmY)) [ARC529]",binding result,[4],no binding
"GGGUACGCCGAAAGGCGCUUCCGAAAGGACGUCCGUAAGGGAUACCC (ssRNA, 2'-F C,U) [Type 1.4]",IC50,[2],80 nM
same,Kd,[3],185 nM
"GGAGUACACAAGAAGUGCUUCCGAAAGGACGUCGAAUAGAUACUCC (ssRNA, 2'-F C,U) [B10.min5]",IC50,[2],80 nM
same,Kd,[3],277 nM
"ACAGGCAAGUAAUUGGGGAGUGCGGGCGGGGUGU (mixed, dRmY; PS between nt 9 and 10) [ARC1154]",Kd,[7],412 nM
"ACAGGCAAGUAAUUGGGGAGUGCGGGCGGGGUGU (mixed, 2'-deoxy A and G, 2'-OMe C and U (dRmY)) [ARC979]",Kd,[8],9 nM
"ACAGGCAAGUAAUUGGGGAGUGCGGGCGGGGUGU (mixed, deoxy A,G; 2'-OMe C,U; PS 19-20 [PS between 19-20; 2'-OMe C,U at 2,6,10,13,14,21,23,27,32,34; deoxy A,G at all other positions]) [ARC1161]",Kd,[9],55 nM
"ACAGGCAAGUAAUUGGGGAGUGCGGGCGGGGUGU (mixed, dRmY; PS between nt 18 and 19 [N = PS linkage, not a base; PS between nt 18 and 19; 2'-deoxy all A/G; 2'-OMe all C/U (2,6,10,13,14,21,23,27,32,34)]) [ARC1160]",Kd,[10],38 nM
"ACAGGCAAGUAAUUGGGGAGUGCGGGCGGGGUGU (mixed, deoxy A,G; 2'-OMe C,U; PS 20-21 [PS between 20-21; 2'-OMe C,U at 2,6,10,13,14,21,23,27,32,34; deoxy A,G at all other positions]) [ARC1162]",Kd,[9],47 nM
"GGGCACUCAGCCACAGCUCGGUGGCUUAAUAUCUAUGUGAACGUGCCC (ssRNA, 2'-F all C and U (rRfY)) [ARC1633 minimer]",Kd,[6],25 nM
"ARC492 (mixed, 2'-deoxy A and G, 2'-OMe C and U (dRmY)) RNA: GGGAGAGGAGAGAACGUUCUACUCAAUGACCGCGCGAGGCUCUGGGAGAGGGCGCUGUCGAUCGAUCGAUCGAUG",binding result,[11],no binding
same,binding result,[12],no binding
"ACAGCGCCGGUGGGCGGGCAUUGGGUGGAUGCGCUGU (mixed, 2'-deoxy A and G, 2'-OMe C and U (dRmY)) [ARC527]",Kd,[13],12.6 nM
"GGGCACUCAGCCACCUUGGGCUUAAUACCUAUCGGAUGUGCCC (ssRNA, 2'-F all C and U (rRfY)) [ARC1634 minimer]",Kd,[6],19 nM
"GGCGGUUACGGGGGAUGCGGGUGGGACAGG (mixed, 2'-deoxy A and G, 2'-OMe C and U (dRmY)) [ARC982]",binding result,[14],no binding
